Experimental data published in patent publication US20210403506A1 (XDCEXPLORER SHANGHAI, published 2021).
Square brackets hold non-standard residues; d marks the D form. Primed or numbered codes have the meaning given here. Ends that are not written are not given here. * marks the point of attachment. Pro(trans-4-Ph) = O=C(O)[C@@H]1C[C@@H](c2ccccc2)CN1; Bpa = N[C@@H](Cc1ccc(C(=O)c2ccccc2)cc1)C(=O)O; Pro(5R-Ph) = O=C(O)[C@@H]1CC[C@H](c2ccccc2)N1; dTyr(3-F) = N[C@H](Cc1ccc(O)c(F)c1)C(=O)O; PEG8 = NCCOCCOCCOCCOCCOCCOCCOCCOCCC(=O)O; Phe(4-Cl) = N[C@@H](Cc1ccc(Cl)cc1)C(=O)O; Pro(diF)″ = difluoroproline (DiFluorPro); Phe(4-Me) = Cc1ccc(C[C@H](N)C(=O)O)cc1; 1Nal = N[C@@H](Cc1cccc2ccccc12)C(=O)O; 2Nal = N[C@@H](Cc1ccc2ccccc2c1)C(=O)O; dNMeY = CN[C@H](Cc1ccc(O)cc1)C(=O)O; Hydrocinnamoyl = O=C(CCc1ccccc1)*; Palmitoyl = CCCCCCCCCCCCCCCC(=O)*; Hyp = O=C(O)[C@@H]1C[C@@H](O)CN1; NMeF = CN[C@@H](Cc1ccccc1)C(=O)O; 3‑phenylpropyl = c1ccc(CCC*)cc1; Tic = O=C(O)[C@@H]1Cc2ccccc2CN1; NMeL = CN[C@@H](CC(C)C)C(=O)O; Pro(4Ph) = 4-phenylproline; NMeS = CN[C@@H](CO)C(=O)O; Thz = O=C(O)[C@@H]1CSCN1; βAla = NCCC(=O)O

T1: human Chemokine like receptor 1 (human, UniProt Q99788 1-373)
T1 sequence (looked up): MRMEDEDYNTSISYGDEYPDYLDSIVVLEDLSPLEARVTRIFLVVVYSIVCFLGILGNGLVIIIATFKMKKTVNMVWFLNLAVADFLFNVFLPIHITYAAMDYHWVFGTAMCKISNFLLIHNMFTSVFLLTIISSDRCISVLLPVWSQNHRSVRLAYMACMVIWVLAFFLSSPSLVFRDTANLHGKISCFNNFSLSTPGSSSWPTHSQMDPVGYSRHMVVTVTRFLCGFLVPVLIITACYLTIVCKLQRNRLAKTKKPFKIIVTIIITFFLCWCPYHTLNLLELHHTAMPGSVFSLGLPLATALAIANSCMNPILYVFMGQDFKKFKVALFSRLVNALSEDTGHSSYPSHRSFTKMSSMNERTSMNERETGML

B1: YW-103 (peptide)
peptide: [dNMeY]FLP[dS]QF[dA][Tic]S-OH
modifications: N-terminus assumed
SMILES: CN[C@H](Cc1ccc(O)cc1)C(=O)N[C@@H](Cc1ccccc1)C(=O)N[C@@H](CC(C)C)C(=O)N1CCC[C@H]1C(=O)N[C@H](CO)C(=O)N[C@@H](CCC(N)=O)C(=O)N[C@@H](Cc1ccccc1)C(=O)N[C@H](C)C(=O)N1Cc2ccccc2C[C@H]1C(=O)N[C@@H](CO)C(=O)O
B2: YW-220 (peptide)
peptide: [dNMeY]F[NMeL]P[dS]Q[2Nal][dA][Tic][NMeS]
modifications: not fully specified (residue 4); printed as (NMe-D-Tyr)-Phe-(NMe-Leu)-Pro(tran-4F)-(D-Ser)-Gln-(Nal-2)-(D-Ala)-Tic-(NMe-Ser)
B3: YW-221 (peptide)
peptide: [dTyr(3-F)]F[NMeL]P[dS]Q[2Nal][dA][Tic][NMeS]
modifications: not fully specified (residue 4); printed as (D-Tyr(3F))-Phe-(NMe-Leu)-Pro(tran-4F)-(D-Ser)-Gln-(Nal-2)-(D-Ala)-Tic-(NMe-Ser)
B4: YW-110 (peptide)
peptide: [dY]FLP[dS]QF[dA][Tic][NMeS]-OH
modifications: N-terminus assumed
SMILES: CC(C)C[C@H](NC(=O)[C@H](Cc1ccccc1)NC(=O)[C@H](N)Cc1ccc(O)cc1)C(=O)N1CCC[C@H]1C(=O)N[C@H](CO)C(=O)N[C@@H](CCC(N)=O)C(=O)N[C@@H](Cc1ccccc1)C(=O)N[C@H](C)C(=O)N1Cc2ccccc2C[C@H]1C(=O)N(C)[C@@H](CO)C(=O)O
B5: YW-97 (peptide)
peptide: [dF]FLP[dS]QF[dA][Tic]S-OH
modifications: N-terminus assumed
SMILES: CC(C)C[C@H](NC(=O)[C@H](Cc1ccccc1)NC(=O)[C@H](N)Cc1ccccc1)C(=O)N1CCC[C@H]1C(=O)N[C@H](CO)C(=O)N[C@@H](CCC(N)=O)C(=O)N[C@@H](Cc1ccccc1)C(=O)N[C@H](C)C(=O)N1Cc2ccccc2C[C@H]1C(=O)N[C@@H](CO)C(=O)O
B6: YW-121 (peptide)
peptide: [dY]F[NMeL][Thz][dS]QF[dA][Tic]S-OH
modifications: N-terminus assumed
SMILES: CC(C)C[C@@H](C(=O)N1CSC[C@H]1C(=O)N[C@H](CO)C(=O)N[C@@H](CCC(N)=O)C(=O)N[C@@H](Cc1ccccc1)C(=O)N[C@H](C)C(=O)N1Cc2ccccc2C[C@H]1C(=O)N[C@@H](CO)C(=O)O)N(C)C(=O)[C@H](Cc1ccccc1)NC(=O)[C@H](N)Cc1ccc(O)cc1
B7: YW-111 (peptide)
peptide: Hydrocinnamoyl-[dY]F[NMeL]P[dS]QF[dA][Tic]S-OH
SMILES: CC(C)C[C@@H](C(=O)N1CCC[C@H]1C(=O)N[C@H](CO)C(=O)N[C@@H](CCC(N)=O)C(=O)N[C@@H](Cc1ccccc1)C(=O)N[C@H](C)C(=O)N1Cc2ccccc2C[C@H]1C(=O)N[C@@H](CO)C(=O)O)N(C)C(=O)[C@H](Cc1ccccc1)NC(=O)[C@@H](Cc1ccc(O)cc1)NC(=O)CCc1ccccc1
B8: YW-222 (peptide)
peptide: [dTyr(3-F)]F[NMeL]P[dS]Q[2Nal][dA][Tic]S
modifications: not fully specified (residue 4); printed as [D-Tyr(3F)]-Phe-(NMe-Leu)-Pro(tran-4F)-(D-Ser)-Gln-(Nal-2)-(D-Ala)-Tic-Ser
B9: YW-112 (peptide)
peptide: [dY]FL[Pro(5R-Ph)][dS]QF[dA][Tic]S-OH
modifications: N-terminus assumed
SMILES: CC(C)C[C@H](NC(=O)[C@H](Cc1ccccc1)NC(=O)[C@H](N)Cc1ccc(O)cc1)C(=O)N1[C@@H](c2ccccc2)CC[C@H]1C(=O)N[C@H](CO)C(=O)N[C@@H](CCC(N)=O)C(=O)N[C@@H](Cc1ccccc1)C(=O)N[C@H](C)C(=O)N1Cc2ccccc2C[C@H]1C(=O)N[C@@H](CO)C(=O)O
B10: YW-104 (peptide)
peptide: [dY][NMeF]LP[dS]QF[dA][Tic]S-OH
modifications: N-terminus assumed
SMILES: CC(C)C[C@H](NC(=O)[C@H](Cc1ccccc1)N(C)C(=O)[C@H](N)Cc1ccc(O)cc1)C(=O)N1CCC[C@H]1C(=O)N[C@H](CO)C(=O)N[C@@H](CCC(N)=O)C(=O)N[C@@H](Cc1ccccc1)C(=O)N[C@H](C)C(=O)N1Cc2ccccc2C[C@H]1C(=O)N[C@@H](CO)C(=O)O

The binders below were run against T1, human Chemokine like receptor 1 (assay: cell-based or functional assay).
For [dY]F[NMeL]P[dT]QF[dA][Tic]S [YW-204], the “EC50 (µM), activation of Tango CMKLR1-bla U2OS cells” value (“EC50 (µM), activation” for short) was 0.062 µM.
In the case of [dY][Bpa][NMeL]P[dS]QF[dA][Tic]S [YW-201], the “EC50 (µM), activation” value is reported as 0.076 µM.
In the case of B1, the “EC50 (µM), activation” value is reported as 0.0094 µM.
[dTyr(3-F)]F[NMeL][Pro(diF)″][dS]Q[2Nal][dA][Tic][NMeS]-OH [YW-226] was tested, and the “EC50 (µM), activation” value was 0.0033 µM.
[dY]F[NMeL][Pro(trans-4-Ph)][dS]QF[dA][Tic]S [YW-215] was tested, and the “EC50 (µM), activation” value was 0.0048 µM.
[dY]F[NMeL][Thz][dS]Q[2Nal][dA][Tic]S-OH [YW-122] was tested, and the “EC50 (µM), activation” value was 0.0006 µM.
For [dY]F[NMeL][Hyp][dS]QF[dA][Tic]S [YW-198], the “EC50 (µM), activation” value was 0.0053 µM.
For B2, the “EC50 (µM), activation” value was 0.00067 µM.
In the case of B3, the “EC50 (µM), activation” value is reported as 0.00068 µM.
In the case of B4, the “EC50 (µM), activation” value is reported as 0.013 µM.
With [dY]FL[S‑Pip][dS]QF[dA][Tic]S [YW-96] the “EC50 (µM), activation” value was 0.039 µM.
B5 was tested, and the “EC50 (µM), activation” value was 0.05 µM.
In the case of [dY]FL[Pro(4Ph)][dS]QF[dA][Tic]S-OH [YW-113], the “EC50 (µM), activation” value is reported as 0.0086 µM.
For [dY][2Nal][NMeL]P[dS]QF[dA][Tic]S [YW-200], the “EC50 (µM), activation” value was 0.019 µM.
For [dNMeY]F[NMeL][Pro(4Ph)][dS]Q[2Nal][dA][Tic]S [YW-216], the “EC50 (µM), activation” value was 0.0013 µM.
For {3‑phenylpropyl}-[dY]F[NMeL]P[dS]QF[dA][Tic]S-OH [YW-207], the “EC50 (µM), activation” value was 0.00092 µM.
B6 was tested, and the “EC50 (µM), activation” value was 0.0007 µM.
[dY][Phe(4-Cl)][NMeL]P[dS]QF[dA][Tic]S [YW-203] was tested, and the “EC50 (µM), activation” value was 0.0082 µM.
In the case of [dY][Phe(4-Me)][NMeL]P[dS]QF[dA][Tic]S [YW-202], the “EC50 (µM), activation” value is reported as 0.0064 µM.
For B7, the “EC50 (µM), activation” value was 0.002 µM.
In the case of GG[dY]F[NMeL]P[dS]Q[2Nal][dA][Tic]S (not fully specified (residue 6, N-terminus)) [YW-223], the “EC50 (µM), activation” value is reported as 0.00033 µM.
With {4‑(trifluoromethyl)benzoyl}-[dY]F[NMeL]P[dS]QF[dA][Tic]S-OH [YW-195] the “EC50 (µM), activation” value was 0.0008 µM.
With [dY]F[NMeL][Pro(diF)][dS]Q[2Nal][dA][Tic][NMeS] [YW-224] the “EC50 (µM), activation” value was 0.0013 µM.
[dY]F[NMeL]P[dS]QF[dA][Phe(4-Cl)]S [YW-206] was tested, and the “EC50 (µM), activation” value was 0.009 µM.
In the case of [dY][1Nal][NMeL]P[dS]QF[dA][Tic]S [YW-199], the “EC50 (µM), activation” value is reported as 0.0029 µM.
With B8 the “EC50 (µM), activation” value was 0.00034 µM.
With B9 the “EC50 (µM), activation” value was 0.17 µM.
In the case of {Palmitoyl-PEG8}-[βAla][βAla][dNMeY]F[NMeL][Pro(trans-4-Ph)][dS]Q[2Nal][dA][Tic]S [YW-217], the “EC50 (µM), activation” value is reported as 0.0033 µM.
For [dNMeY]F[NMeL][Pro(diF)″][dS]Q[2Nal][dA][Tic][NMeS]-OH [YW-225], the “EC50 (µM), activation” value was 0.00064 µM.
[dY]F[NMeL]P[dS]QF[dA][Phe(4-Me)]S [YW-205] was tested, and the “EC50 (µM), activation” value was 0.0062 µM.
For B10, the “EC50 (µM), activation” value was 0.08 µM.
